# Data: patent US20180318355A1, “METHODS AND COMPOSITIONS FOR IMPROVED TISSUE REGENERATION BY SUPPRESION OF INTERFERIN-GAMMA AND TUMOR NECROSIS FACTOR-ALPHA” (Alfred E. Mann Institute for Biomedical Eng. at the …, priority 2011, published 2018)
# Entries after “also recorded” stand apart in the source; their conditions may differ. Where a SMILES comes first, the peptide text is derived from it. The star is where a group is joined. Cbz = O=C(OCc1ccccc1)*; CH2F = FC*
# Tests used:
# [1] = tested on: Fas, caspase 8, caspase 3; assay: Western blot of Fas, cleaved caspase 8 and cleaved caspase 3 in BMMSCs; assay type: cell-based, mouse; conditions: for cleaved caspase 3 in IFN-γ/TNF-α-treated BMMSCs / cleaved caspase 8 in IFN-γ/TNF-α-treated BMMSCs: siRNA or inhibitor treatment before IFN-γ/TNF-α
# Experimental: (§1) Western blot analysis. Total protein was extracted using M-PER mammalian protein extraction reagent (Thermo, Rockford, Ill.). Nuclear protein was obtained using NE-PER nuclear and cytoplasmic extraction reagent (Thermo). Protein was applied and separated on 4-12% NuPAGE gel (Invitrogen) and transferred to Immobilon™-P membranes (Millipore). The membranes were blocked with 5% non-fat dry milk and 0.1% tween-20 for 1 hour, followed by incubation with the primary antibodies (1:20¬1000 dilution) at 4° C. overnight. Horseradish peroxidase-conjugated IgG (Santa Cruz Biosciences; 1:10,000) was used to treat the membranes for 1 hour, and enhanced with a SuperSignal® West Pico Chemiluminescent Substrate (Thermo). The bands were detected on BIOMAX MR films (Kodak, Rochester, N.Y.). Each membrane was also stripped using a stripping buffer (Thermo) and reprobed with anti-β-actin antibody to quantify the amount of loaded protein.
# (§2) SiRNAs for Fas, TNFR2, IKK, FLIP and XIAP were used to treat the BMMSCs according to the manufacture's instruction, and IFN-γ and TNF-α were added for 24 hrs. Inhibitors for internalization (Latrunculin A, 0.2 μM), pan caspase (Z-VAD (OMe)-FMK, 50 μM), caspase 8 ([…], 20 μM) and caspase 3 (Z-DEVD-FMK, 20 µM) were used to treat the BMMSCs at 4 hrs before IFN-γ and TNF-α were added. Cell apoptosis were analysis by immunofluorescence staining and FACS^Calibur (Annexin V-PE apoptosis detection kit I) and Western blot analysis for caspase 8, cleaved caspase 8, caspase 3 and cleaved caspase 3.
# [2] = tested on: BMMSCs; assay: siRNA and inhibitors: IFN-γ/TNF-α-induced BMMSC death; assay type: cell-based, mouse; conditions: siRNA or inhibitor treatment before IFN-γ/TNF-α, toluidine blue staining
# Experimental: as §2
# [3] = tested on: Fas; assay: Fas internalization (immunocytochemical staining); assay type: cell-based, mouse; conditions: caspase inhibitor in IFN-γ/TNF-α-treated BMMSCs vs control group
# Experimental: as §2
# Fas internalization. P1 BMMSCs were seeded to 2-well chamber slide. IFN-γ (50 ng/ml) was added to pre-treat BMMSCs for 24 hours, and then TNF-α (20 ng/ml) was added. At the 0.5, 1, 2, 4 hours after TNF-α was added, the cells were washed by PBS twice, and fixed with 4% PFA for 15 min. After treated by Triton-X 15 min, the cells were blocked with normal serum matched to secondary antibodies, incubated with 1 μg/ml anti-Fas (Santa Cruz) antibody at room temperature for 2 hours, treated with Rhodamin-conjugated secondary antibodies (1:200, Jackson ImmunoResearch). Then the cells were incubated with ([…] (1:40; Invitrogen) at room temperature for 20 min, and were mounted by vectashield mounting medium DAPI (Vector Laboratories).
# [4] = tested on: BMMSCs; assay: Cell apoptosis and cell survival assay in vitro (toluidine blue, Annexin V); conditions: for BMMSC death / viability: single cytokine, 1-200 ng/ml, three days
# Experimental: Cell apoptosis and cell survival assay. 0.5×10^6 BMMSCs were seeded to 6-well culture plate and co-cultured with different doses of recombined IL-4, IL-6, IL-17A, TGF-β1, TNF-α and IFN-γ (0, 10, 20, 50, 100, 200 ng/ml) for 3 days. To measure the cell viability, the total cells were analyzed by using a cell counting kit-8 (Dojindo Molecular Technoloies, Gaithersburg, Md.) according to the manufacture's instruction. And the culture plates with cells were stained with 2% toluidine blue O and 2% paraformaldehyde (Sigma-Aldrich Corporate, St. Louis, Mo.).
# For cell apoptosis analysis, the BMMSCs were stained by Annexin V-PE apoptosis detection kit I (BD Bioscience) following manufacture's protocol, and analyzed by FACS^Calibur (BD Bioscience).
# IFN-γ and TNF-α synergism for apoptosis. For cell apoptosis staining, the 1×10^4 BMMSCs were seeded onto two chambers slide, IFN-γ (50 ng/ml) and TNF-α (20 ng/ml) were used to treat the BMMSCs for 24 hrs either separately or combined, Annexin V-PE apoptosis detection kit I (BD Bioscience) was used to stain the BMMSCs following manufacture's protocol, and analyzed on microscopy and FACS^Calibur (BD Bioscience). Cell viability was analyzed by using cell counting kit, and culture plates were stained with 2% toluidine blue O and 2% paraformaldehyde.
# IFN-γ and TNF-α synergism for apoptosis. 0.5×10^6 BMMSCs were seeded to 6-well culture plate and co-cultured with different doses of TNF-α (0, 5, 50, 100 ng/ml) with or without IFN-γ (50 ng/ml) for I day. Then, the BMMSCs were stained by Annexin V-PE apoptosis detection kit I (BD Bioscience) following manufacture's protocol, and analyzed by FACS^Calibur (BD Bioscience).
# [5] = tested on: BMMSC-mediated bone formation; assay: BMMSC-mediated bone formation, subcutaneous BMMSC/HA/TCP implantation; assay type: in vivo; conditions: 200 ng cytokine in hydrogel co-implanted with BMMSCs/HA/TCP, immunocompromised mice, 8 weeks post implantation
# Experimental: BMMSC-mediated bone formation. Approximately 4.0×10^6 BMMSCs were mixed with hydroxyapatite/tricalcium phosphate (HA/TCP) ceramic particles (40 mg, Zimmer Inc., Warsaw, Ind.) as a carrier and subcutaneously implanted into the dorsal surface of 8-10 weeks old immunocompromised mice or C57BL/6J mice. At eight weeks post-implantation, the implants were harvested, fixed in 4% paraformaldehyde and then decalcified with 5% EDTA (pH 7.4), followed by paraffin embedding. The 6 μm paraffin sections were stained with hematoxylin and eosin (H&E) and analyzed by an NIH Image J. Five fields were selected and newly formed mineralized tissue area in each field was calculated and shown as a percentage to total tissue area.
# Cytokines in BMMSC-mediated bone formation. Approximately 4.0×10^6 of littermate-derived or autologous BMMSCs were mixed with HA/TCP ceramic powders (40 mg, Zimmer Inc.), and hydrogel (Glycosan Biosysterms, Salt Lake City, Utah) with 200 ng IFN-γ, TNF-α, IL-4, IL-6 or IL-17A were covered on the surface of the implants as a slow released system. At eight weeks post-implantation, the implants were harvested and newly formed mineralized tissue areas were analyzed. […]
# BMMSC-mediated bone formation. Approximately 4.0×10^6 of littermate-derived or autologous BMMSCs were mixed with hydroxyapatite/tricalcium phosphate (HA/TCP) ceramic particles (40 mg, Zimmer Inc., Warsaw, Ind.) as a carrier and subcutaneously implanted into the dorsal surface of 8-10 weeks old immunocompromised mice or C57BL6 mice. When aspirin was used, BMMSCs were treated with 50 μg/ml aspirin for 2 days and mixed with HA/TCP particles to be subcutaneously implanted into immunocompromised mice. When IFN-γ and TNF-α were used in the subcutaneous implants, 200 ng IFN-γ, TNF-α or/and 100 μg aspirin mixed with 250 μl hydrogel as a slow released system and subcutaneously co-implanted to the dorsal surface of 8-10 weeks old immunocompromised mice.
# At eight weeks post-implantation, the implants were harvested, fixed in 4% paraformaldehyde and then decalcified with 5% EDTA (pH 7.4), followed by paraffin embedding. The 6 μm paraffin sections were stained with hematoxylin and eosin (H&E) and analyzed by an NIH Image J. Five fields were selected and newly formed mineralized tissue area in each field was calculated and shown as a percentage to total tissue area.
# [6] = tested on: BMMSCs; assay: Osteogenic differentiation assay (alizarin red staining); assay type: cell-based, mouse; conditions: for mineralized nodule formation / osteogenic differentiation of BMMSCs: alizarin red
# Experimental: (§3) Osteogenic differentiation assay. BMMSCs were cultured under osteogenic culture condition media containing 2 mM […] (Sigma-Aldrich), 100 μM L-ascorbic acid 2-phosphate and 10 nM dexamethasone (Sigma-Aldrich). Different doses of IFN-γ (50, 200 ng/ml) were added to the osteogenic culture condition media every 3 days. After the osteogenic induction, the cultures were stained with alizarin red. Expressions of Runx2, ALP, and OCN were assayed by Western blot analysis.
# [7] = tested on: Smad 6, Smad 7, Runx2, ALP, OCN; assay: Western blot of Smad 6, Smad 7 and osteogenic genes in BMMSCs; assay type: cell-based, mouse
# Experimental: as §3, §1
# [8] = 200 ng/ml cytokine, osteogenic media, 14 days
# [9] = Fas^−/− BMMSCs from lpr mice and Fas knock down BMMSCs by siRNA
# [10] = wild type BMMSCs, IFN-γ 50 ng/ml, TNF-α 20 ng/ml, alone or co-stimulated
molecule,measurement,setting,value
"C/C1=C/C(=O)O[C@@H]2C[C@@H](CC[C@H](C)/C=C\C=C\CC1)O[C@@](O)([C@@H]1CSC(=O)N1)C2 [Lnt A, Latrunculin A]",cleaved caspase 3 in IFN-γ/TNF-α-treated BMMSCs,[1],significantly reduced
same,cleaved caspase 8 in IFN-γ/TNF-α-treated BMMSCs,[1],significantly reduced
same,cleaved caspase 3 in IFN-γ/TNF-α-treated BMMSCs,[1]; listed as LntA,inhibition of cleaved caspase 3 and 8
same,cleaved caspase 8 in IFN-γ/TNF-α-treated BMMSCs,[1]; listed as LntA,inhibition of cleaved caspase 3 and 8
same,IFN-γ/TNF-α-induced BMMSC death,[2],significantly reduced
same,IFN-γ/TNF-α-induced BMMSC death,[2]; listed as LntA,partially rescue
"COC(=O)C[C@H](NC(=O)[C@H](C)NC(=O)[C@@H](NC(=O)OCc1ccccc1)C(C)C)C(=O)CF [pan caspase inhibitor, Z-VAD (OMe)-FMK] (Cbz-Val-Ala-Asp(OMe)-CH2F)",number of BMMSCs with Fas internalization,[3],reduced number of Fas internalization
TGF-β1: recombined TGF-β1 cytokine co-cultured with BMMSCs,BMMSC death / viability,[4]; toluidine blue staining,no effect
"IL-4: Recombinant murine IL-4 purchased from PeproTech (protein, UniProt P07750 21-140, looked up) Interleukin-4: HIHGCDKNHLREIIGILNEVTGEGTPCTEMDVPNVLTATKNTTESELVCRASKVLRIFYLKHGKTPCLKKNSSVLMELQRLFRAFRCLDSSISCTMNESKSTSLKDFLESLKSIMQMDYS",new bone formation in BMMSC implants,[5],a reduction in new bone formation; also recorded: slightly inhibited
same,BMMSC death / viability,[4]; toluidine blue staining,no effect
same,mineralized nodule formation / osteogenic differentiation of BMMSCs,[6]; [8],reduced mineralized nodule formation; also recorded: partial inhibition
"IL-17A: Recombinant murine IL-17A purchased from PeproTech (protein, UniProt Q62386 26-158, looked up) Interleukin-17A: AAIIPQSSACPNTEAKDFLQNVKVNLKVFNSLGAKVSSRRPSDYLNRSTSPWTLHRNEDPDRYPSVIWEAQCRHQRCVNAEGKLDHHMNSVLIQQEILVLKREPESCPFTFRVEKMLVGVGCTCVASIVRQAA",new bone formation in BMMSC implants,[5],no inhibitory effect
same,new bone formation in BMMSC implants,[5]; listed as IL-17,no inhibitive effect
same,BMMSC death / viability,[4]; toluidine blue staining,no effect
same,mineralized nodule formation / osteogenic differentiation of BMMSCs,[6]; [8],no inhibition effect
"IL-6: Recombinant murine IL-6 purchased from PeproTech (protein, UniProt P08505 25-211, looked up) Interleukin-6: FPTSQVRRGDFTEDTTPNRPVYTTSQVGGLITHVLWEIVEMRKELCNGNSDCMNNDDALAENNLKLPEIQRNDGCYQTGYNQEICLLKISSGLLEYHSYLEYMKNNLKDNKKDKARVLQRDTETLIHIFNQEVKDLHKIVLPTPISNALLTDKLESQKEWLRTKTIQFILKSLEEFLKVTLRSTRQT",new bone formation in BMMSC implants,[5],a reduction in new bone formation; also recorded: slightly inhibited
same,BMMSC death / viability,[4]; toluidine blue staining,no effect
same,mineralized nodule formation / osteogenic differentiation of BMMSCs,[6]; [8],no inhibition effect
"IFN-γ: Recombinant murine IFN-γ purchased from PeproTech (protein, UniProt P01580 23-155, looked up) Interferon gamma: HGTVIESLESLNNYFNSSGIDVEEKSLFLDIWRNWQKDGDMKILQSQIISFYLRLFEVLKDNQAISNNISVIESHLITTFFSNSKAKKDAFMSIAKFEVNNPQVQRQAFNELIRVVHQLLPESSLRKRKRSRC",Smad 6 elevation and inhibition of osteogenic genes,[7]; 50 ng/ml IFN-γ,not observed
same,Smad 6 expression,[7]; 200 ng/ml IFN-γ,elevated; also recorded: up-regulated expression
same,"expression of osteogenic genes Runx2, ALP and OCN",[7]; 200 ng/ml IFN-γ,inhibited; also recorded: down-regulated expression
same,expression levels of Smad 6 and Runx2,[7]; [9],failed to block osteogenesis and alter expression levels of Smad 6 and Runx2; also recorded: failed to reduce ostoegenic differentiation and alter expression levels of Smad 6 and Runx2
same,expression level of Smad 7,[7]; IFN-γ-treated BMMSCs,not altered
same,new bone formation in BMMSC implants,[5],completely blockage of new bone formation; also recorded: inhibited subcutaneous bone formation; also recorded: reduced BMMSC-mediated bone formation; also recorded: significantly reduced bone formation
same,Fas expression,[1]; [10],up-regulated expression of Fas; also recorded: activated
same,activation of caspase 3 and caspase 8,[1]; [10],no activation of caspase 3 and caspase 8; also recorded: without activating caspase 3 and caspase 8
same,TNF-α-induced BMMSC apoptosis,"[4]; IFN-γ 50 ng/ml added to TNF-α 0, 5, 50, 100 ng/ml, flow cytometric analysis",significantly enhanced TNF-α-induced BMMSC apoptosis
same,TNF-α-induced BMMSC apoptosis,"[4]; IFN-γ 50 ng/ml added to TNF-α 50-200 ng/ml, toluidine blue staining",synergistically enhanced; also recorded: significantly enhanced BMMSC apoptosis
same,TNF-α-induced BMMSC apoptosis,"[4]; IFN-γ 50 ng/ml with TNF-α 20 ng/ml, 7AAD/Annexin staining",accelerated; also recorded: enhanced
same,BMMSC death,[4]; IFN-γ 1 to 50 ng/ml with TNF-α 50 ng/ml,dose dependent BMMSC death; also recorded: correlated with IFN-γ concentration
same,BMMSC death,[4]; IFN-γ 100-200 ng/ml with TNF-α 50 ng/ml,no any BMMSC survived; also recorded: complete BMMSC apoptosis
same,BMMSC death / viability,[4]; toluidine blue staining,no effect; also recorded: not able to induce BMMSC apoptosis
same,mineralized nodule formation / osteogenic differentiation of BMMSCs,[6]; 50 ng/ml IFN-γ,no significant inhibitive effect; also recorded: no inhibitory effect
same,mineralized nodule formation / osteogenic differentiation of BMMSCs,[6]; [8],significantly inhibited mineralized nodule formation; also recorded: significant reduction in mineralized nodule formation; also recorded: inhibited osteogenic differentiation
same,osteogenesis of Fas-deficient BMMSCs,[6]; [9],failed to block osteogenesis; also recorded: failed to reduce ostoegenic differentiation
